± gives the half width of the 95% confidence interval.
assay: folding stability dG unfold from chymotrypsin proteolysis; higher = more stable
In short: (§1)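 Bayesian fitting of sequencing counts gave K50 for each design. Unfolding free energy followed by setting this against a sequence-predicted unfolded-state K50 and a shared folded-state K50, either per protease or with trypsin and chymotrypsin combined. The designs, under 80 residues and lacking cysteine, were digested in a PA-tagged cDNA display format at 11 threefold-diluted protease concentrations and without protease, and only those with AlphaFold2 dimer inter-PAE above 15 were kept.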

Row | Sequence | folding stability dG unfold
1 | SAGGSAGGSDFKPVLVIELDDKTVLVFELEDGTVLVLAENEIALIPASIPAEHFPEDAKLDLDSAGGSAGGS [r12_594_TrMRF] | 1.76 ± 0.052 kcal/mol
2 | SAGGSAGGSTVEEIADFFKQQGFTDAEINVMPPPNGRRYVTVRFEMKEPNGNKHKMNFSIWIPSAGGSAGGS [r12_246_TrROS] | 1.99 ± 0.16 kcal/mol
3 | SAGGSAGGGEMELVLTVPPEEVTPEQLLELVEEIREALEKGGAKAEPVKIDPEKGVVILFRVDPSAGGSAGG [r6_850_TrMRF] | 0.258 ± 0.27 kcal/mol
4 | SAGGSVTITSITSIDTSSLSPDSVVTADVPDGKPVLIKGKVPPDGSVILTFYTPDGKPVATFTIPSSAGGSA [r2_323_JUSTAS] | 0.779 ± 0.056 kcal/mol
5 | SAGGSAGGSMKTLTLEGESEEEAIEKVKEYFKKKGINYKLLKIEISEKPNGTKIYTIDIDTKKSAGGSAGGS [r12_924_JUSTAS] | 2.33 ± 0.1 kcal/mol
6 | SAGGGADVISAYDPETVEELSKLPWVTSVTYDPETGRYDIRFERPDGQYNYVVDNVTKEVLEVSPVDSAGGS [r8_251_TrMRF] | 1.29 ± 0.053 kcal/mol
7 | SAGGSMVKLKVTSVSREGNYLTVTAELGNLIVEIRFDEGTDRFEVKVSEKPLVLGEEEIEELAKASSAGGSA [r2_482_TrMRF] | 2.38 ± 0.043 kcal/mol
8 | SAGGMKPGEIVEKITIEIEINGKKYKIEMTFYKDNGIIEIKIYNKNGKLIKTFKFYIDPKTKKIILLSAGGS [r16_798_TrROS_Hall] | 3.81 ± 0.098 kcal/mol
9 | SAGGKSVKVSLPKEALKKAKENEKVVITLPDGTKREAILVRGGDSVPVFVVNPDNPEEAEYVGEATVGSAGG [r13_745_TrMRF] | 0.134 ± 0.042 kcal/mol
10 | SAGGMLRVTATVGYAPDDPAVELAKKIAEALTPPGMKVRMKAKVTPLADGTYRIDIEVEIRPPGEPGSAGGS [r16_128_TrMRF] | 3.64 ± 0.13 kcal/mol
11 | SAGMTYTEKVFTSEVTLPEIGAKITITTTVKTPPSGETEPTVEVTFDLPETASEEVVKAVLEELNIPVESAG [r5_486_JUSTAS] | 1.13 ± 0.066 kcal/mol
12 | SAGGDEDKPKPKIEPKKEIEIVLPYPEDEVTPEELKARIEEETGEKITEIEVTRIPNSNEYKVKFTVESAGG [r13_457_JUSTAS] | 0.68 ± 0.15 kcal/mol
13 | SAGGSAGGSAPPRRVTIEYDPDSGMFKVKVPGGKEREIEGMPPNQIEEQAKDYGIDRVEIVSAGGSAGGSAG [r3_78_TrROS] | -0.286 ± 0.41 kcal/mol
14 | SARVYRLPDGRLVRFEPVPPRPPVIVIPVDFRISPDDPETRRRLAEEIRRRLLEELGLPEDTPIFVDPSSAG [r14_453_TrMRF] | 4.45 ± 0.14 kcal/mol
15 | SAGGLGTDSTVPTLTLSVPVLVPTADGSPRELTVRVTIRAPVRLNPPTGELEIGDVEVSVEVFDPSLLSAGG [r13_312_TrMRF] | 3.73 ± 0.11 kcal/mol
16 | SAGGMMTIEELKKLPPGAKVGDKIKIRNPATGETFTVTVLPDGRIKIEVDGKIYELPPGAEIVEIEKSAGGS [r8_162_TrROS_Hall] | 2.36 ± 0.076 kcal/mol

assay: folding stability dG unfold from trypsin proteolysis; higher = more stable
In short: as §1

Row | Sequence | folding stability dG unfold
17 | SAGGMVIVVKTKEEAKKALEELLKKLFPDLKIKKIEIKEVEVEVKKKDGKKVKKKKFIVVKIEIEKESAGGS [r16_267_TrROS_Hall] | 2.61 ± 0.1 kcal/mol
18 | SAGGSAGGSAGGSGPSVTVSTTTLPPLPVTVETVTVGDTTVLVVFTPEGGSAVVPSGALSAGGSAGGSAGGS [r4_256_JUSTAS] | 1.96 ± 0.091 kcal/mol
19 | SAGGMEKAIKEIKEAAKKGEEAVIVLPKNVDPSELISAIEKETGAKVEPLEVKPLPNGELVIKIKVKSAGGS [r16_318_TrMRF] | 1.44 ± 0.1 kcal/mol
20 | SAGGYLVRIEMPNGREHEYPVKDIDDAASRFRDHLGFPPNMKLKVEVYDPKDGEKKERTLTIPMPKPKSAGG [r13_145_TrROS] | 0.0313 ± 0.092 kcal/mol
21 | SAGGSAGGSAGTITTPTAEFTVTLDPNGTYTVTYQNTTTTVPVGAPFTLPGGEPLTVVPASAGGSAGGSAGG [r11_147_JUSTAS] | 0.0786 ± 0.069 kcal/mol
22 | SAGGSAGGSAGGDWKMIEFYIPIEPDEPITIEIPDGVRIQIWRVDGYYKVTIMIPLEDISAGGSAGGSAGGS [r10_355_TrROS] | 2.42 ± 0.14 kcal/mol
23 | SAGGSAGGSADNPDDKKKQKPKPEIKVKVEWVVIPNGFLIFEITIAGGITLTIIIPFPPNMFSAGGSAGGSA [r18_192_TrROS] | 2 ± 0.058 kcal/mol
24 | SAGGSAMQQLDITKTKWDPNTGTLSVTAKDPLTGEVTTYTIPRNGPTLNFPPGAELKSVETEPPPLSAGGSA [r15_959_JUSTAS] | 0.0912 ± 0.28 kcal/mol
25 | SAGGSASVKVEETVEFLPGGVVKTTTRTFFPDGTVTTTDTVTALPPVPVYDISSPENLSPALERLASAGGSA [r15_1018_JUSTAS] | 0.543 ± 0.028 kcal/mol
26 | SASSSSSSYNVTIDPATGTVTVTNPDGSTTTVPPGSTLTVTSTSSDGGSALGSSTPSTSTTTIPVPAGTSAG [r14_366_JUSTAS] | 1.05 ± 0.05 kcal/mol
27 | SMKPGDTVIVKIEIEKKVDGKTVKKTIEKEIKIKPGETVEIELKGLPKGAKVRVEIFNADGKLIEEKELPSA [r9_478_TrROS_Hall] | 2.23 ± 0.075 kcal/mol
28 | SAGGSAGGSAGGGSMTLELPLPEWSEEEIEALAEELKKKGLKVKEIERDPESDVVRITVESAGGSAGGSAGG [r7_906_JUSTAS] | 1.79 ± 0.1 kcal/mol
29 | SAGGSAGGSAGGSPSETLEVTLADGTRLTVTRNADGSLTVTVEPAPPPPVVVFKSPEELSAGGSAGGSAGGS [r4_120_TrROS_Hall] | 1.44 ± 0.025 kcal/mol
30 | SAGSMSFELTVDYEKLPDGTYRVRATITIYDPNNNNPLKTVDFEGEATSEEEAEARARARAEEVKEAASAGG [r19_255_JUSTAS] | 1.84 ± 0.078 kcal/mol
31 | SAGGSAGGSAWIVIPAEDIKENLDEIEFRNGDGQEYRIKVDVQEHGDRPYVMIDIVPPGQPISAGGSAGGSA [r18_447_TrROS] | -0.413 ± 0.28 kcal/mol
32 | SAGGSAGGSDFKPVLVIELDDKTVLVFELEDGTVLVLAENEIALIPASIPAEHFPEDAKLDLDSAGGSAGGS [r12_594_TrMRF] | 2.04 ± 0.12 kcal/mol

Row | Sequence | folding stability dG unfold
33 | SAGGSAGGSTVEEIADFFKQQGFTDAEINVMPPPNGRRYVTVRFEMKEPNGNKHKMNFSIWIPSAGGSAGGS [r12_246_TrROS] | 2.53 ± 0.16 kcal/mol
34 | SAGGSAGGGEMELVLTVPPEEVTPEQLLELVEEIREALEKGGAKAEPVKIDPEKGVVILFRVDPSAGGSAGG [r6_850_TrMRF] | -0.273 ± 0.14 kcal/mol
35 | SAGGSVTITSITSIDTSSLSPDSVVTADVPDGKPVLIKGKVPPDGSVILTFYTPDGKPVATFTIPSSAGGSA [r2_323_JUSTAS] | 0.508 ± 0.017 kcal/mol
36 | SAGGSAGGSMKTLTLEGESEEEAIEKVKEYFKKKGINYKLLKIEISEKPNGTKIYTIDIDTKKSAGGSAGGS [r12_924_JUSTAS] | 1.19 ± 0.1 kcal/mol
37 | SAGGGADVISAYDPETVEELSKLPWVTSVTYDPETGRYDIRFERPDGQYNYVVDNVTKEVLEVSPVDSAGGS [r8_251_TrMRF] | 1.03 ± 0.07 kcal/mol
38 | SAGGSMVKLKVTSVSREGNYLTVTAELGNLIVEIRFDEGTDRFEVKVSEKPLVLGEEEIEELAKASSAGGSA [r2_482_TrMRF] | 1.52 ± 0.064 kcal/mol
39 | SAGGMKPGEIVEKITIEIEINGKKYKIEMTFYKDNGIIEIKIYNKNGKLIKTFKFYIDPKTKKIILLSAGGS [r16_798_TrROS_Hall] | 3.66 ± 0.14 kcal/mol
40 | SAGGKSVKVSLPKEALKKAKENEKVVITLPDGTKREAILVRGGDSVPVFVVNPDNPEEAEYVGEATVGSAGG [r13_745_TrMRF] | -0.503 ± 0.16 kcal/mol
41 | SAGGMLRVTATVGYAPDDPAVELAKKIAEALTPPGMKVRMKAKVTPLADGTYRIDIEVEIRPPGEPGSAGGS [r16_128_TrMRF] | 2.65 ± 0.16 kcal/mol
42 | SAGMTYTEKVFTSEVTLPEIGAKITITTTVKTPPSGETEPTVEVTFDLPETASEEVVKAVLEELNIPVESAG [r5_486_JUSTAS] | -0.411 ± 0.2 kcal/mol
43 | SAGGDEDKPKPKIEPKKEIEIVLPYPEDEVTPEELKARIEEETGEKITEIEVTRIPNSNEYKVKFTVESAGG [r13_457_JUSTAS] | 0.227 ± 0.04 kcal/mol
44 | SAGGSAGGSAPPRRVTIEYDPDSGMFKVKVPGGKEREIEGMPPNQIEEQAKDYGIDRVEIVSAGGSAGGSAG [r3_78_TrROS] | 0.205 ± 0.16 kcal/mol
45 | SARVYRLPDGRLVRFEPVPPRPPVIVIPVDFRISPDDPETRRRLAEEIRRRLLEELGLPEDTPIFVDPSSAG [r14_453_TrMRF] | 4.11 ± 0.18 kcal/mol
46 | SAGGLGTDSTVPTLTLSVPVLVPTADGSPRELTVRVTIRAPVRLNPPTGELEIGDVEVSVEVFDPSLLSAGG [r13_312_TrMRF] | 3.03 ± 0.11 kcal/mol
47 | SAGGMMTIEELKKLPPGAKVGDKIKIRNPATGETFTVTVLPDGRIKIEVDGKIYELPPGAEIVEIEKSAGGS [r8_162_TrROS_Hall] | 1.93 ± 0.086 kcal/mol

Source: the supplement of paper PMC12764529
